Experimental data from the RNAGym collection of RNA variant scans (doi:10.7554/elife.80360).

B1: CPEB3 Ribozyme (parent)
chain: GGGGGCCACAGCAGAAGCGUUCACGUCGCGGCCCCUGUCAGAUUCUGGUGAAUCUGCGAAUUCUGCUGU

Variants of: B1
Experiment: self-cleavage, relative activity (ratio to wild type); higher = more cleavage; co-transcriptional

| Variant | self-cleavage |
| --- | --- |
| GGGGGCCACAGCAGAAACGAUCACGUCGCGGCCCCUGUCAGAUUCUGGUGAAUCUGCGAAUUCUGCUGU [G17A U20A] | 0.0639 |
| GGGGGCCACAGCAGAAACGUUCACGUCGCGGCGCCUGUCAGAUUCUGGUGAAUCUGCGAAUUCUGCUGU [G17A C33G] | 0.188 |
| GGGGGCCACAGCAGAAACGUUCACGUCGCGGCACCUGUCAGAUUCUGGUGAAUCUGCGAAUUCUGCUGU [G17A C33A] | 0.21 |
| GGGGGCCACAGCAGAAACGUUCACGUCGCGGCCCCUGUCAGAUUCUGGUGAAUCUGCGACUUCUGCUGU [G17A A60C] | 0.189 |
| GGGGGCCACAGCAGAAACGUUCACGUCGCGGCCCCUGUCAGAUUCUGGUGAAUCUGCGAGUUCUGCUGU [G17A A60G] | 0.202 |
| GGGGGCCACAGCAGAAACGUUCACGUCGGGGCCCCUGUCAGAUUCUGGUGAAUCUGCGAAUUCUGCUGU [G17A C29G] | 0.749 |
| GGGGGCCACAGCAGAAACGUUCACGUCGCCGCCCCUGUCAGAUUCUGGUGAAUCUGCGAAUUCUGCUGU [G17A G30C] | 0.161 |
| GGGGGCCACAGCAGAAACGUUCACGUCGCGGCCCCUGUCAGAUUCUGGUGAAUCCGCGAAUUCUGCUGU [G17A U55C] | 0.141 |
| GGGGGCCACAGCAGAAACGUUCACGUCGCGGCCCCUGUCAGAUUCUGGUGAAUCAGCGAAUUCUGCUGU [G17A U55A] | 0.195 |
| GGGGGCCACAGCAGAUGCGUUCACGUCGCGGCCCCUGUCAAAUUCUGGUGAAUCUGCGAAUUCUGCUGU [A16U G41A] | 0.411 |
| GGGGGCCACAGCAGAUGCGUUCACGUCGCGGCCCCUGUCAUAUUCUGGUGAAUCUGCGAAUUCUGCUGU [A16U G41U] | 0.497 |
| GGGGGCCACAGCAGAAACGUUCACGUCGCGGCCCCUGUCGGAUUCUGGUGAAUCUGCGAAUUCUGCUGU [G17A A40G] | 0.344 |
| GGGGGCCACAGCAGAAACGUUCACGACGCGGCCCCUGUCAGAUUCUGGUGAAUCUGCGAAUUCUGCUGU [G17A U26A] | 0.349 |
| GGGGGCCACAGCAGAAACGUUCACGUCCCGGCCCCUGUCAGAUUCUGGUGAAUCUGCGAAUUCUGCUGU [G17A G28C] | 0.0891 |
| GGGGGCCACAGCAGAUGCGUUCACGUCGCGUCCCCUGUCAGAUUCUGGUGAAUCUGCGAAUUCUGCUGU [A16U G31U] | 0.295 |
| GGGGGCCACAGCAGAUGCGUUCACGUCGCGCCCCCUGUCAGAUUCUGGUGAAUCUGCGAAUUCUGCUGU [A16U G31C] | 0.147 |
| GGGGGCCACAGCAGAUGCGUUCACGUCGCGGCCCCUGUCAGAUUCUCGUGAAUCUGCGAAUUCUGCUGU [A16U G47C] | 0.906 |
| GGGGGCCACAGCAGAUGCGUUCACGUCGCGGCCCCUGUCAGAUUCUUGUGAAUCUGCGAAUUCUGCUGU [A16U G47U] | 0.879 |
| GGGGGCCACAGCAGAUGCGUUCACUUCGCGGCCCCUGUCAGAUUCUGGUGAAUCUGCGAAUUCUGCUGU [A16U G25U] | 0.134 |
| GGGGGCCACAGCAGAUGCGUUCACAUCGCGGCCCCUGUCAGAUUCUGGUGAAUCUGCGAAUUCUGCUGU [A16U G25A] | 0.206 |

| Variant | self-cleavage |
| --- | --- |
| GGGGGCCACAGCAGAAACGUUCACGUCGCGGCCCCUGUCAGAUUCAGGUGAAUCUGCGAAUUCUGCUGU [G17A U46A] | 0.634 |
| GGGGGCCACAGCAGAAACGUUCACGUCGCGGCCCCUGUCAGAUUCGGGUGAAUCUGCGAAUUCUGCUGU [G17A U46G] | 0.591 |
| GGGGGCCACAGCAGAUGCGUUCACGUCGCGGCCCCUGUCAGAUGCUGGUGAAUCUGCGAAUUCUGCUGU [A16U U44G] | 0.767 |
| GGGGGCCACAGCAGAAACGUUCACGUUGCGGCCCCUGUCAGAUUCUGGUGAAUCUGCGAAUUCUGCUGU [G17A C27U] | 0.172 |
| GGGGGCCACAGCAGAAACGUUCACGUGGCGGCCCCUGUCAGAUUCUGGUGAAUCUGCGAAUUCUGCUGU [G17A C27G] | 0.134 |
| GGGGGCCACAGCAGAAACGUUCACGUAGCGGCCCCUGUCAGAUUCUGGUGAAUCUGCGAAUUCUGCUGU [G17A C27A] | 0.126 |
| GGGGGCCACAGCAGAUGCGGUCACGUCGCGGCCCCUGUCAGAUUCUGGUGAAUCUGCGAAUUCUGCUGU [A16U U20G] | 0.108 |
| GGGGGCCACAGCAGAAACGUUCACGUCGCGGCCCCUGUCAGAUUCUGGUGACUCUGCGAAUUCUGCUGU [G17A A52C] | 0.431 |
| GGGGGCCACAGCAGAUGCGUUCACGUCGCGGCCCCUGUCAGAUUCUGGUGAACCUGCGAAUUCUGCUGU [A16U U53C] | 0.66 |
| GGGGGCCACAGCAGAUGCGUUCACGUCGCGGCCCCUGUCAGACUCUGGUGAAUCUGCGAAUUCUGCUGU [A16U U43C] | 0.86 |
| GGGGGCCACAGCAGAUGCGUUCACGUCGCGGCCCCUGUCAGAUUCUGGUGAAUCUGCGAAUUCUGCUAU [A16U G68A] | 0.953 |
| GGGGGCCACAGCAGAUGCGUGCACGUCGCGGCCCCUGUCAGAUUCUGGUGAAUCUGCGAAUUCUGCUGU [A16U U21G] | 0.294 |
| GGGGGCCACAGCAGAUGCGUCCACGUCGCGGCCCCUGUCAGAUUCUGGUGAAUCUGCGAAUUCUGCUGU [A16U U21C] | 0.322 |
| GGGGGCCACAGCAGAUGCGUUCACGUCGCGGCCCCUGUCAGAUUCUGGUCAAUCUGCGAAUUCUGCUGU [A16U G50C] | 0.762 |
| GGGGGCCACAGCAGAUGCGUUCACGUCGCGGCCCCUGUCAGAUUCUGGUAAAUCUGCGAAUUCUGCUGU [A16U G50A] | 0.884 |
| GGGGGCCACAGCAGAAACGUUCACGUCGCGGCCCCUGUCAGAUUCUGGUGAAUCUUCGAAUUCUGCUGU [G17A G56U] | 0.178 |
| GGGGGCCACAGCAGAAACGUUCACGUCGCGGCCCCUGUCAGAUUCUGGUGAAUCUCCGAAUUCUGCUGU [G17A G56C] | 0.238 |
| GGGGGCCACAGCAGAAACGUUCACGUCGCGGCCCCUGUCAGAUUCUGGUGAAUCUACGAAUUCUGCUGU [G17A G56A] | 0.234 |
| GGGGGCCACAGCAGAUGCGUUCACGUCGCGGCCCCUGUCAGAUUCUGGUGAAUCUGCUAAUUCUGCUGU [A16U G58U] | 0.814 |
